Test results: paper PMC9889658, “The structure of MadC from Clostridium maddingley reveals new insights into class I lanthipeptide cyclases” (Frontiers in Microbiology, 2023)

Key:
[1] = target: maddinglicin leader peptide construct madL3, Leader 3 (−23 − +10) (Clostridium sp. maddingley); test: ITC; MadC (200–600 μM) in the syringe, 20 injections of 2 μl into the cell with the leader variant (20–60 μM); 25°C; 50 mM HEPES, 500 mM NaCl, pH 7.5; at least triplicate
[2] = target: maddinglicin leader peptide construct madL2, Leader 2 (−23 − +5) (Clostridium sp. maddingley); test: as above
[3] = target: maddinglicin leader peptide construct madL1, Leader 1 (−23 – −1) (Clostridium sp. maddingley); test: as above
[4] = target: prenisin (dehydrated) (Lactococcus lactis) (UniProt P13068); conditions: cited from earlier work
prenisin (dehydrated) (Lactococcus lactis), sequence (P13068 24-57): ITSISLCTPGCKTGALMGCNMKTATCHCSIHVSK

[5] = target: prenisin (unmodified) (Lactococcus lactis) (UniProt P13068); conditions: cited from earlier work
prenisin (unmodified) (Lactococcus lactis), sequence (P13068 24-57): as above

[6] = target: prenisin (modified) (Lactococcus lactis) (UniProt P13068); conditions: cited from earlier work
prenisin (modified) (Lactococcus lactis), sequence (P13068 24-57): as above

[7] = target: NisA leader peptide leader peptide (Lactococcus lactis) (UniProt P13068); test: ITC; conditions: cited from earlier work
NisA leader peptide leader peptide (Lactococcus lactis), sequence (P13068 1-23): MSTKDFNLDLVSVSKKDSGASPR

[8] = target: NisA precursor peptide (unmodified) (Lactococcus lactis) (UniProt P13068); test: ITC; conditions: cited from earlier work
NisA precursor peptide (unmodified) (Lactococcus lactis), sequence (P13068 24-57): as the sequence (P13068 24-57) above

[9] = target: nisin precursor NisA (unmodified) (Lactococcus lactis) (UniProt P13068); test: ITC; conditions: cited from earlier work
nisin precursor NisA (unmodified) (Lactococcus lactis), sequence (P13068 24-57): as above

[10] = target: MadC ∆34 ∆391 (double mutant carrying both deletions, each with an inserted GAG-linker) (Clostridium sp. maddingley); test: SPR

NisC, sequence (Q03202 whole entry): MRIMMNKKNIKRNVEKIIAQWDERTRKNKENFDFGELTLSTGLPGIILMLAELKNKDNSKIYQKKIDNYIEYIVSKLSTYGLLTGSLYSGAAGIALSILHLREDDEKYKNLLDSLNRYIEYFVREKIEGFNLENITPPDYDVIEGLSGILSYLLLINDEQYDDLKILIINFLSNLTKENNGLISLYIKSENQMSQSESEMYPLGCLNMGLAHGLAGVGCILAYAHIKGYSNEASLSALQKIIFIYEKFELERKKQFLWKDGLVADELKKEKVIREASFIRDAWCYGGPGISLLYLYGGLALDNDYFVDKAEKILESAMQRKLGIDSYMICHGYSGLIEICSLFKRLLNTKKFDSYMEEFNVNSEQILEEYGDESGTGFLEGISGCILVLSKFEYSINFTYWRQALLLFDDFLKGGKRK
NisB, sequence (P20103 whole entry): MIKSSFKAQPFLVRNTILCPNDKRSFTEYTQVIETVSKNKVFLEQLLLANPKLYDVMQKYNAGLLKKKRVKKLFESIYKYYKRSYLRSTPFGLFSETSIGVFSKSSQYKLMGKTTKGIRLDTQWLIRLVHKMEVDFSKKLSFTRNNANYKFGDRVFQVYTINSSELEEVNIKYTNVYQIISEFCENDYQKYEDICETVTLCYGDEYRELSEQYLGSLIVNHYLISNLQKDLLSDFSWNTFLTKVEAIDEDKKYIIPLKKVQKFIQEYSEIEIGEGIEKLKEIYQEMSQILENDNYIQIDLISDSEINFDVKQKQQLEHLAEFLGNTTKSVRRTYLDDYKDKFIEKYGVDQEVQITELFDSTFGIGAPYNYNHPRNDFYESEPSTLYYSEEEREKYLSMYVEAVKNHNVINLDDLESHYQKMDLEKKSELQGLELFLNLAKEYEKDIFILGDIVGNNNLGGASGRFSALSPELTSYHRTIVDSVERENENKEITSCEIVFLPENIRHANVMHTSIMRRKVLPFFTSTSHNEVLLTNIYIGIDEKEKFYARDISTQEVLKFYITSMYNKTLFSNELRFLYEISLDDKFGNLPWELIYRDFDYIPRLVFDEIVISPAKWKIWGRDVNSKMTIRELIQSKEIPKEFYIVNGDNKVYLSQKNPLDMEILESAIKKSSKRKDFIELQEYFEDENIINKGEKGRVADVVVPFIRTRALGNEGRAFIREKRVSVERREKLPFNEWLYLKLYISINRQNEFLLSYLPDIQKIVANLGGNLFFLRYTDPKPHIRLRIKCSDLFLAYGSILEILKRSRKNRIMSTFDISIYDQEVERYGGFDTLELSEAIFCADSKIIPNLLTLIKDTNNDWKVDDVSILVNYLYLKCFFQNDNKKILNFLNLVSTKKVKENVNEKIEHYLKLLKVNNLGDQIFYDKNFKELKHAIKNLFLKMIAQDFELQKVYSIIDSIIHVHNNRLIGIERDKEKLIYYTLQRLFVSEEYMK

“MadC (lanthionine cyclase of Clostridium sp. maddingley), His6-tag cleaved off (enzyme)” showed a dH [1] of -7.3 kcal/mol, a stoichiometry N [1] of 0.99 and a dH [2] of -6.02 kcal/mol. For the same substance, the stoichiometry N [2] was 0.99, the dH [3] was -8.76 kcal/mol and the stoichiometry N [3] was 0.83.
In the case of NisB (from UniProt P20103), the Kd [4] is listed as 300 nM, the Kd [5] is listed as 1000 nM and the Kd [6] is listed as 10500 nM.
For NisC (from UniProt Q03202), the Kd [7] is listed as 3800 nM, the Kd [8] is listed as 2400 nM and the Kd [9] is listed as 2000 nM.
“maddinglicin leader peptide construct madL3, Leader 3 (−23 − +10)” gave a Kd [10] of 35000 nM.
